Data as given in patent US20240247072A1 (KEYMED BIOSCIENCES, published 2024).
Residue numbers refer to the chain shown, from its start.

T1: recombinant cynomolgus monkey CD70 protein (cynomolgus monkey, UniProt A0A2K5WTU9 39-190)
T1 construct: it stands only in column heads ('Monkey', 'Cynomolgus Monkey CD70/CD27') and in result sentences; also called Monkey (ELISA)
T1 sequence: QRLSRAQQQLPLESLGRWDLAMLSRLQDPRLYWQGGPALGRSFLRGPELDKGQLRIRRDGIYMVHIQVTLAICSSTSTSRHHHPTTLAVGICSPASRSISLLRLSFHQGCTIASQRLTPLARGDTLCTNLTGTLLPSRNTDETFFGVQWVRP

T2: cynomolgus monkey CD70, full length, on CHO cells (CHO-monkey CD70-D01) (cynomolgus monkey, UniProt A0A2K5WTU9 1-190)
T2 construct: whole, on cells; Stably transfected CHO cells; also called CHO-cynomolgus monkey CD70
T2 sequence: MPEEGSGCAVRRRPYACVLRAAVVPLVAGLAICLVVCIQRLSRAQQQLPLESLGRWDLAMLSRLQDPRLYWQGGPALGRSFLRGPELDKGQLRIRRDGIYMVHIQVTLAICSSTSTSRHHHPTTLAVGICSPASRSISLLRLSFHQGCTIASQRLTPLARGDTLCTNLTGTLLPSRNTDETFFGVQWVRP

T3: recombinant trimeric protein of human CD70 extracellular region (human CD70 mIgG Fc (knob) / mouse IgG Fc … (human, UniProt P01863 98-330 = IgG part))
T3 construct: The ELISA and Octet texts say only 'recombinant CD70 protein' / 'CM352 antigen'; also called recombinant human CD70 protein; recombinant CD70 protein
T3 chain 1: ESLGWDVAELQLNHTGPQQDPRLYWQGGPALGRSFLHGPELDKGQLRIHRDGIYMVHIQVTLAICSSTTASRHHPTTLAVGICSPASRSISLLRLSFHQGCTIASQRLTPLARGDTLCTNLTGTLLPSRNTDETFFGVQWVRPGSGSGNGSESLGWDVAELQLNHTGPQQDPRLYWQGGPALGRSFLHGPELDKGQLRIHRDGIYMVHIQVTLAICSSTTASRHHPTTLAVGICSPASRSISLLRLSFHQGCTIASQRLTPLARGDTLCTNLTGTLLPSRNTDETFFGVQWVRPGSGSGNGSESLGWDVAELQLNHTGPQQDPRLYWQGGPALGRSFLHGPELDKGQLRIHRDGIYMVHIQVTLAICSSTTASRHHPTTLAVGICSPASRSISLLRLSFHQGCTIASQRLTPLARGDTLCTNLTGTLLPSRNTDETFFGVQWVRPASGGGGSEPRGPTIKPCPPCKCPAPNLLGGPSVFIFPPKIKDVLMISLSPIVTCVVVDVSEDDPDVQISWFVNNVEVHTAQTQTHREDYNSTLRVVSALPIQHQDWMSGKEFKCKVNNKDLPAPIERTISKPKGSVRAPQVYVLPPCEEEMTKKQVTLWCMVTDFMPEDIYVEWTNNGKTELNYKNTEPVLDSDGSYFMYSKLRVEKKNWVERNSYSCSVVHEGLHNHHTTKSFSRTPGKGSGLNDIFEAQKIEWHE
T3 chain 2: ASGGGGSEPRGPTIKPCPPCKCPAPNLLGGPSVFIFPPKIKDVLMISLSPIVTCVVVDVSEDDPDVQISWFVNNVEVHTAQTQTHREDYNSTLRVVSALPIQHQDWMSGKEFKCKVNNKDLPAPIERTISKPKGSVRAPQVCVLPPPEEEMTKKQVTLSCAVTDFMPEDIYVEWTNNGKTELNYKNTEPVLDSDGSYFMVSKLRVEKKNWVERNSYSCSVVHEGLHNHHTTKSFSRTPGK

T4: human CD70, full length, on CHO cells (CHO-human CD70-B07) (human, UniProt P32970 1-193)
T4 construct: whole, on cells; Stably transfected CHO cells; also called CHO-CD70
T4 sequence (looked up): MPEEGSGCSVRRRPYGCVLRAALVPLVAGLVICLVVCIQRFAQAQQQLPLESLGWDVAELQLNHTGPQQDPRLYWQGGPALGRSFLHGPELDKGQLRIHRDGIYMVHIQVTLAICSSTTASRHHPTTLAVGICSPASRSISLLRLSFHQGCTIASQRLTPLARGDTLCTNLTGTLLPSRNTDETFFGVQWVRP

B1: 25H7 Fab antibody (Fab, V domains shown)
VH: EIQLVQSGPELKKPGETVKISCKASGYTFTNYGMNWVKQTPGKGLKWMGWINTDTGEPTYADDFKGRFAFSLETSASTAYLQINNLKNEDMATYFCAREEDYRYVFNYWGQGTTLTVSS
VL: DIQMTQTTSSLSASLGDRVTISCRASQDISNYLNWYQQKPDGTVKLLIYYTSRLHSGVPSRFSGSGSGTDYSLTISNLEQEDIATYFCQQGVTLPLTFGAGTKLELK
notes: Purified Fab from the mouse Fab phage display library
B2: 39H5 Fab antibody (Fab, V domains shown)
VH: B1 VH with T40A, K43Q, D54Y, K65T, T93A
VL: B1 VL with T5I, T7S, D17N, Y50D, S56A, L106I
notes: as for B1
B3: humanized antibody Ab004 (IgG1 wild type) (antibody, V domains shown)
VH: QVQLVQSGSELKKPGASVKVSCKASGYTFTNYGMNWVRQAPGQGLEWMGWINTYTGEPTYADGFTGRFVFSLDTSASTAYLQISSLKAEDTAVYFCAREEDYRYVFNYWGQGTLVTVSS
VL: DIQMTQSPSSLSASVGDRVTITCQASQDISNYLNWYQQKPGKAPKLLIYDTSRLHAGVPSRFSGSGSGTDYTFTISSLQPEDIATYFCQQGVTLPLTFGQGTKLEIK
notes: also called Ab004 IgG1 wt; h39H5 VHv2 + h39H5 VKv1
B4: humanized antibody Ab007 (antibody, human IgG1, V domains shown)
VH: B3 VH with F95Y
VL: B3 VL
notes: also called Ab007 IgG1; h39H5 VHv3 + h39H5 VKv1
B5: humanized antibody Ab001 (antibody, human IgG1, V domains shown)
VH: B3 VH with V2I
VL: B3 VL
notes: also called h39H5 VHv1 + h39H5 VKv1
B6: 26G11 Fab antibody (Fab, V domains shown)
VH: QVQLQQSGPELVKPGASVKISCKTSGYTFADYTMHWVRQSQGKSLEWIGDIYPNDGGPNNNQKFKDKATLTVDKSSSTAYMELRSLTSEDSAVYYCARPFYYGNYAGFAFWGQGTLVTVSA
VL: EMVLTQSPAIMSASPGEKVTMTCSASSSVSYMYWYQQKPGSSPRLLIYDTSNLASGVPVRFSGSGSGTSYSLTISRMEAEDAATYYCQQWSSYPLTFGAGTRLEIK
notes: as for B1

Experiments:
[1] = target: T1, recombinant cynomolgus monkey CD70 …; experiment: competition ELISA, Fab titrated, cynomolgus CD27 coated, biotin-CD70
Procedure: (§1) The next day, the plate was washed 3 times with PBS, added with 200 μL of 2% defatted dry milk/PBS, blocked at room temperature for 2 hours, and washed once with PBS, 50 μL of different dilution gradients of Fab antibodies were added and incubated at room temperature for 30 minutes. […] The plate was washed 3 times with PBST and PBS and dried by spinning. A secondary antibody solution Streptavidin-coupled horseradish peroxidase SA-HRP (BD bioscience, Cat. No: 6222697) was diluted with 0.5% BSA in a ratio of 1:8000. 100 μl of the diluent was added into each well and incubate at room temperature for 30 minutes. The plate was washed 3 times with PBST and PBS and dried by spinning. 100 μl of the color development solution (TMB solution, Sigma, Cat. No: T2885) was added into each well and protected from light at 37° C. for reaction. After the substrate developed moderately, 50 μl of 2M concentrated sulfuric acid solution was added into each well to terminate the reaction. The OD450 nm was determined by using an enzyme-linked detector within 30 minutes, and the data was collected.

[2] = target: T2, cynomolgus monkey CD70, full length, on …; experiment: flow cytometry, Fab on CHO-cynomolgus CD70 cells
Procedure: (§2) The blank control cell CHO and stably-transfected cell line CHO-CD70 were prepared and added at 5×10⁴ cells/well into a 96-well plate respectively. 50 μL of Fab antibodies with different dilution gradients were added into each well and incubated at 4° C. for 60 minutes. The centrifuge was performed to discard the supernatant. The plate was washed with 0.5% BSA/PBS and added with 50 μL of a secondary antibody solution (Anti-human IgG F (ab′) 2-AF647, Jackson Immuno Research) and incubated at 4° C. for 45 minutes. The excess secondary antibody was washed off with 0.5% BSA. The PBS solution was added to resuspend cells for flow cytometry. The data was collected.

[3] = target: T3, recombinant trimeric protein of human …; experiment: competition ELISA, Fab titrated, human CD27 coated, biotin-CD70
Procedure: as §1

[4] = target: T4, human CD70, full length, on CHO cells …; experiment: flow cytometry, Fab on CHO-human CD70 cells
Procedure: as §2

[5] = target: T3, recombinant trimeric protein of human …; experiment: BLI (Octet), biotin antigen on SA probe, Fab in solution
[6] = target: FcγRIII V158 (CD16a receptor, high-affinity allele) (human) (UniProt P08637); experiment: SPR (Biacore)
FcγRIII V158 (CD16a receptor, high-affinity allele) (human), sequence (P08637 17-208 F176V limits assumed): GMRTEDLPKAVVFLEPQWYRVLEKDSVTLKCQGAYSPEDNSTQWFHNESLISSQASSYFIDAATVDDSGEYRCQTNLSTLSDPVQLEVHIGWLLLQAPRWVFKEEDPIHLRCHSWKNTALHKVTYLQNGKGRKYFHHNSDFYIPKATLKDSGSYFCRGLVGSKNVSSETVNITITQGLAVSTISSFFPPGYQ

[7] = target: FcγRIII F158 (CD16a receptor, low-affinity allele) (human) (UniProt P08637); experiment: SPR (Biacore)
FcγRIII F158 (CD16a receptor, low-affinity allele) (human), sequence (P08637 17-208 limits assumed): as the sequence (P08637 17-208 F176V limits assumed) above, with V160F counted along it

[8] = target: T3, recombinant trimeric protein of human …; experiment: cell-based or functional assay
[9] = target: T3, recombinant trimeric protein of human …; experiment: competition ELISA, humanized IgG1 titrated, CD27 coated, biotin-CD70, human pair
Procedure: The recombinant human CD27 protein was coated at 1 μg/mL in a 96-well microtiter plate and incubated overnight at 4° C. The next day, the plate was washed 3 times with PBS, added with 200 μL of 2% defatted dry milk/PBS, blocked at room temperature for 2 hours, and washed once with PBS. […] 30 μl of the antibody was added per well and incubated at room temperature for 30 minutes. […] The plate was washed 3 times with PBST and PBS and dried by spinning. A secondary antibody solution Streptavidin-coupled horseradish peroxidase SA-HRP (BD bioscience, Cat. No: 6222697) was diluted with 0.5% BSA in a ratio of 1:8000. 100 μL of the diluent was added into each well and incubated at room temperature for 30 minutes. The plate was washed 3 times with PBST and PBS and dried by spinning. […] of color development solution (TMB solution, Sigma, Cat. No: T2885) was added into each well and protected from light at 37° C. for reaction. After the substrate developed moderately, […] of H₂SO₄ was added into each well to terminate the reaction. The OD450 nm was determined using an enzyme-linked detector within 30 minutes, and the data was collected. The results were calculated by using Graph Pad Prism 5 software. See FIG. 10-1, 10-2, and Table 12 for the results.

[10] = target: FcγRIIIF158 on PBMC of FcγRIIIF158/F158 volunteers (human) (UniProt P08637); experiment: cell-based or functional assay
FcγRIIIF158 on PBMC of FcγRIIIF158/F158 volunteers (human), sequence (P08637 17-254): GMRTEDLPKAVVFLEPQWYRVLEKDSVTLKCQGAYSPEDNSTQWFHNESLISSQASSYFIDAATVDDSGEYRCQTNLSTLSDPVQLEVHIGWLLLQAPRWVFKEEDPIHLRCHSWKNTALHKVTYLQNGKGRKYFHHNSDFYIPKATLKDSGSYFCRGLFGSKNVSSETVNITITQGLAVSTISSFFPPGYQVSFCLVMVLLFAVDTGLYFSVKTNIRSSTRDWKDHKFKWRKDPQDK

[11] = target: FcγRIIIV158 on PBMC of FcγRIIIV158/V158 volunteers (human) (UniProt P08637); experiment: cell-based or functional assay
FcγRIIIV158 on PBMC of FcγRIIIV158/V158 volunteers (human), sequence (P08637 17-254 F176V): as the sequence (P08637 17-254) above, with F160V counted along it

[12] = target: T2, cynomolgus monkey CD70, full length, on …; experiment: flow cytometry, humanized IgG1 on CHO-cynomolgus monkey CD70 cells
Procedure: (§3) The supernatant was discarded and the cells were gently tapped to be loosening. 50 μL of gradient diluted antibodies were added (antibody concentration: from 30 μg/mL, 3-fold dilution for 8 gradients) per well, and incubated at 4° C. for 1 hour. After incubation, 200 μL of 0.5% BSA was added to each well for washing 3 times. 50 μL/well of secondary antibody Alexa Fluro647 anti-human IgG (Jackson ImmunoResearch, Cat. No: 109-606-170) was added and incubated at 4° C. for 45 minutes. At the end of the incubation, each well was washed 3 times with 180 μL of 0.5% BSA and finally resuspended in 50 μL of PBS for iQue (Intellicyt) assay.

[13] = target: T4, human CD70, full length, on CHO cells …; experiment: flow cytometry, humanized IgG1 on CHO-human CD70 cells
Procedure: as §3

[14] = target: T1, recombinant cynomolgus monkey CD70 …; experiment: competition ELISA, humanized IgG1 titrated, CD27 coated, biotin-CD70, cynomolgus pair

| Binder | IC50 [1] [nM] | EC50 [2] [nM] | IC50 [3] [nM] | EC50 [4] [nM] | koff [5] [s⁻¹] | Kd [6] [nM] | Kd [7] [nM] | Inhibition of IL-8 secretion IC50(nM), HT1080-human CD27 cells stimulated with recombinant human CD70 [8] [nM] | IC50 [9] [nM] | ADCC Killing EC50, Daudi targets, FcγRIIIF158 PBMC [10] [nM] | ADCC Maximum killing rate, Daudi targets, FcγRIIIF158 PBMC [10] [%] | ADCC Killing EC50, Daudi targets, FcγRIIIV158 PBMC [11] [nM] | ADCC Maximum killing rate, Daudi targets, FcγRIIIV158 PBMC [11] [%] | EC50 [12] [nM] | EC50 [13] [nM] | IC50 [14] [nM] |
| --- | --- | --- | --- | --- | --- | --- | --- | --- | --- | --- | --- | --- | --- | --- | --- | --- |
| B1 | 14.4 | 23.4 | 0.76 | 15.5 | 0.000326 | – | – | – | – | – | – | – | – | – | – | – |
| B2 | 0.37 | 10.2 | 0.38 | 8.7 | 9e-05 | – | – | – | – | – | – | – | – | – | – | – |
| B3 | – | – | – | – | – | 565 | 1300 | 11 | 0.04 | 0.23 | 13 | 0.22 | 40 | 3.39 | 2.15 | 0.05 |
| B4 | – | – | – | – | – | – | – | 9.92 | 0.04 | – | – | – | – | 3.14 | 2.57 | 0.05 |
| B5 | – | – | – | – | – | – | – | 10.7 | 0.04 | – | – | – | – | 5.78 | 2 | 0.05 |
| B6 | 4.36 | 49.7 | 4.82 | 40.7 | 0.000287 | – | – | – | – | – | – | – | – | – | – | – |
